Experiment: yeast display, Sf9 membrane polyspecificity reagent, FACS + sequencing; frameworks hold sequencing errors
Method in brief: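 Nanobodies from a synthetic yeast display library (Saccharomyces cerevisiae BJ5465), induced 36–48 hours with galactose, were stained 1 hour at 4 °C with 10% biotinylated, detergent-solubilized Sf9 membrane reagent, enriched on streptavidin microbeads, then FACS-sorted. Anti-HA (expression) and streptavidin (reagent binding) fluorescence set low and high (top ~1%) gates. Polyreactivity labels come from the gate of origin. Genes were colony-PCR amplified, MiSeq 2 × 250 sequenced and filtered by CDR length.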

Sequence	polyreactivity (PSR sort gate)
QVQLVESGGGLVQAGGSLRLICADSGRIFGWYAMGWYRQAPGKERELVAAITSGSRTSYADSVKGRFTISRDNAKNTVYLQMNSLKPEDTAVYYCNRVSHLDYYWGQGTQVTVSS	high polyreactivity
QVQLVESGGGLVQAGGSLRLSCAASGLTIYAYAMGWYRQAPGKERELVAIISYNGGRTYYADSVKGRFTISRDNAKNTVYLQMNSLKPEDTAVYYCAARGREVRYDYWGQGTQVTVSS	high polyreactivity
QDQHVESGGGLVQAGGSLRLSCDASGFIFTYYAMGWYRQAPGKERELVAAISRSGGNTYYADSVKGRFTISRDNAKNTVYLQMNSLIPEDTAVYYCAAETRRGGYWGYEYYYWGQGTQVTVSS	high polyreactivity
QVQLVESGGGLVQAGGSLRFSCAASGSTFRDYAMGWYRQAPGKERELVAAISSRGATTYYADSVKGRFTISRDNAKNTVYLQMNSLKPEDTAVYYCNARQRRNPGGYGYWGQGTQVTVSS	high polyreactivity
QVQLVESGGGLVQAGGSRRLSCAASGYSLRIYAMGWYRQAPGTEMELVAAISRSGGRTFYADSVKGRFTISRDNAKNTVFLQMNSLKQEDTAVYYCAADPRCYDTGRMDYWGQGTQVTVSS	high polyreactivity
QVHLVESGGGLVQAGGSLRLSCAASGRTFWIYGMGWYRPATGKERELVAAITRSGGSTNYADSVKGRFTLSRDNAKNNVYLQMNSLKPEVTAVYYGAADTWYPGYYAYDYRGQGTQVTVSS	high polyreactivity
QVQLVESGGRLVQAGGSLRLRCAASGRTFYWNGMGWYRQSPGKERELVAAITVSVGSTYFADSVKGRFTISRDNAKNTVSLQMNSLKPEDTAVYYCNADAYYEARIWSYRKGDYWGQGTQVTVSS	low polyreactivity
QVQLEESVGGLVQAGGSLRLSCAASGSISYKYLMGWYRQAPGKEREFVASMTRIGGSTYYADSVKGRFTISRDNAKNTVYLQMNSLNAEDTAVYYCAADYAIGRLRRGDDYWGQGTQVTVSS	low polyreactivity
QVQLEESGGGLVQAGGSLRLSCAASGSTFFPYAMGWYRQAPGKERELVAGISSDGGTSYADSVKGRFTISRDTAKNTVYLQMNSLKPEDTAVYYCNARAVNVRDYINYDYWGQGTQVTVSS	low polyreactivity
QVQLVESGGGLVQAGGSLRFSCAASGRTFYFYAMGWYRQAPGKERELVAAIRSSGGSTNYADSVKGRFTISRDNAKNTVYLQMNSLKPEDTAVYYCAAKRRAKGNYAFYYWGQGTQVTVSS	high polyreactivity
QVQLVESGGGLVQAGGSLRLSCAASGRTFWWYAMGWYRQAPGKERALVAGISSGGSTYYADSVKGRCTISRDNAKKTVYLLMNSRKPEETAVYYCAKTYWYPWRASLWHEYDYWGQGTQVTVSS	low polyreactivity
QVQLVESGGGLVQAGGSLRLSCAASGYIFGQYAMGWYRQAPGKERELVADITRGGDTYYADSVKGRFTISRDNAKNTVYLQMNSLKPEDTAVYYCAAEQGRTSYRYYYWGQGTQVTVSS	high polyreactivity
QVQLVESGGGLVQAGGSLRLSCAASGFIFYSNAMGWYRQAPGKERELVAAISRSGGSTYYADSVKGRFTISRDNAKNTVYLQMNSLKPEDTAVYYCNADYVYRRYGYWGQGSQVTVSS	high polyreactivity
QVQLVESGGGLVQAGGSLRLSCAASGRTFYLYTMGWYRQAPGKEREFVAIISRSGASTRYADSVKGRFTISRDNAKNTVYLQMNRLKPEDTAVYYCAAYVGYPYDYWGQGTQVTVSS	high polyreactivity
QVQLVESGGGLVQAGGSLRLSCAASGRIFKTYAMGWYRPAPGKERELVAAITASGGRTYYADSVKGRFTISRDNAKNTVYLQMNSLKPEDTAVYYCAKRPSYYARNSAYAYLSYGYWGQGTQVTVSS	low polyreactivity
QVQLVESGGGLVQAGGSLRLSCAASGFTFREYAMGWYRQAPGKERELVAAIDWSGGSTYYADSVKGRFTISRDNAKNTVYLQMNRLKPEDTAVYYCNVDFYDWYVYLWYVDYDYCGQGTQVTVSS	high polyreactivity
QVQLVESGGGLVQAGGRLRLSCAASGFTFPRYAMGWYRQAPGKERELVAAISRGGSTNYADSVKGRFTISRDNAKNTVYLQMNSLKPEDTAVYDCAKVLRRWPDPAWGMDYWGQGTQVTVSS	high polyreactivity
QVQLVESGGGLVQAGGSLRLSCAASGSIFELNAMGWYRQAPGKERELVAAIRWRTGRTYYADSVKGRFTISRDNAKNTVYLQMNSLKPEDTAVYYCAAPVRSGVRYTLDYWGQGTQVTVSS	high polyreactivity
QVQLVESGGGLVQAGGSLRLSCAASGFIFGTNAMGWYRQAPGKERELVASISSTGGSTYYADSVKGRFTISRDNAKNTVYLQMNSLKPEDTAVYYCAADPYPEYIRYLPGVDYWGQGSQVTVSS	low polyreactivity
QVQLVESGGGLVQAGGSLRVSCAASGRTFDSYAMGWYRQAPGKEREFVAAISYSGTSTYYADSVKGRFTISRDNAKNTVYLQMNSLKPEDTAVYYCNAARETRPRDYYWGQGTQVTVSS	low polyreactivity
QVQLVESGGGLVQAGGSLRLSCAASGSTFYGNMGWYRQAPGKERALVAAITYRGTNTYYADSVKGRFTISRDNAKNTVYLQMNSLKPEDTAVYYCAAEYDVYQGRGRYYGYDYWGQGTQVTVSS	high polyreactivity
QVQLVESGGGLVQAGGSLRISCAASGFIFKKNAMGWYRQAPGKERELVAAITSSGGSTYYADSVKGRFTISRDNAKNTVYFQMNSLKPEDSAVYYCARDKEQQGYRLFGYWGQGTQVTVSS	high polyreactivity

Sequence	polyreactivity (PSR sort gate)
QVQLVESGGGLVQAGGSLRLSCAASGTSGYYAMGWYRQAPGKERELVAGISIGGSTNYADSVKGRFTISRDNAKNTVYLQMNSLKPEDTAVYYCAVDGYVAFSPDRNNYWGQGTQVTLSS	low polyreactivity
QVQLVESGGGLVQAGGSLRLSCASSGLIFYKNAMGWYRQAPGKVRELVAAISWRDGRTYYADSVKGRFTISRDNAKNTVYLQMNSLKPEDTAVYYCNAVRGITYYDYFYWGQGTQVTVSS	high polyreactivity
QVQLVESGGGLVQAGGSLRLSCAASGRTFAYNAMGWYRQAPGKEREMVASITSGGSTNYADSVKGRFTISRDNAKNNVYLQINSLIPEDTAVYYCNIDGKYHLVLYDYWGQGTQVTVSS	low polyreactivity
QVQLVESCGGLVQAGGSLRLSCAASGSTFTVNAMGGYRQAPGKERELVAAINWSGGSTYYADSVKGRFTISRDNAKNTVYFQMNSLKPEDTAVYYCNKDREPYGYWSFDYWGQGSQVTVSS	low polyreactivity
QVQLVESGGALVKAGGSLRLSCAASGYIFYGYAMGRYRQAPGKEWELVAAITVRGGSTYYADSVKGRFTISRDNAKNTVYLQMNSLKPEDTAVYYCAAAPQFTFGVGYWGQGTQVTVSS	low polyreactivity
QVQLVESGGGLVQAGGSLRLSCAASGGTFLYYAMGWYRQAPGKERELVAAISRGGSTHYADSVKGRFTISRDNAKNTVYLQMNSLKPEDTAVYYCAADRSHRKRINFYDYWGQGTQVTVSS	low polyreactivity
QVHHVESGGGLVQAGGSLRLSCAASGIIFGYNVMGWYRQEPGKVRELVAAMRYSGGSTYYADSVKGSFTISRDNAKNTVYLQMNSLKPEDTAVYYCATYSAVRELLWGNGYWGQGTQVTVSS	high polyreactivity
QVQLVESGGGLVQAGGSLRLSCAASGSTGLNAMGWYRQAPGKERELVAAITWSGGSTYYADSVKGRFTISRDNAKNTVYLQMNSLKPVDTAVYYCAAQYTWYKSRYGYWGQGTQVTVSS	high polyreactivity
QVQLVESGGGLVQAGGSLRLSCAASARIFVPYARGWYRQAPGKERELVAAIRKSGGSTYYADSVKGRFTISRDNAKNTVYLQMNSLKPDVTAVYYCAASTLGMVQTQPGKRKTYLYGYWGQGTQVTVSS	high polyreactivity
QVQLVESGGGLVQAGGILRLSCASSGRTFRYYAKGWYRQAPGKERELVATISKSGGSTYYADSVKGRFTISRDNAKNTVYLQMNRLKPEDTAVYYCAAVGPYRWYDYWGQGTQVTVSS	high polyreactivity
QVQLVESGGGLVQAGGSLRLSCAASGLTFYVYAMGWYRQAPGKERELVAAISSGGRTYYADSVKGRFTISRDNAKNTVYLQMTSLKPEDTAVYYCAAVRHRNYGYWGQGTQVTVSS	high polyreactivity
QVQLLESGGGLVQAGGSLRLSCAASGYNFGNYAMGWYRQAPGKERELVAAITSRGGRTYYADSVKGRFTISRDNAKNSFYLQMNSLIPVDTGVYYCYRAVTTKDGYWGQCTQVTVSS	high polyreactivity
QVQLVESGGGLVQAGGSLRLSCAASGRIFAYYAMGWYRQAPGTERELVALISSTGGSTYYADSVKGRFTISRDNAKNTVYLQMNSLKPEDTAVYYCNKQVTGAERFQGHGAYYWGQGTQVTVSS	high polyreactivity
QVHLVESGGGLVQAGGSLRLSCAASGFTFPWYAMGWYRQAPGKERELVAAINTGGSTYYADSVKGRFSISRDNAKNTVYLQMNSLKPDDTEVYYCATLGRYRYLNTYYWGSHDYWGQGTQVTVSS	high polyreactivity
QVQLVESGGGLVQAGGSLRLSCAASGRTFSYYAMGWYRQAPGKERELVAAITSSGGRTYYADSVKGRFTISRDTAKKSFYFQMYSLKPEDSAVYFFNTYTGQRDFSPFDSWGQGTQVTVTS	high polyreactivity
QDQLVESGGGLVQAGGSLRLSCAASGSIFWLYTMGWYRQAPGKERELVAAITGSGSSTYYADSVKGRFTISRDNAKNTVYLQMNSLKPEDTAVYYCAAYWSSARRRYDYWGQGTQVTVSS	high polyreactivity
QVQLVESGGCLVQAGGSLRLSCAASGSTFPIYAMGWYRQAPGKERELVARITWNGGRTYYADSVKGRFTISRDNAKNTVYLQMNSLKPEDTAVYYCNALYYHNLEGNYWGQGTQVTVSS	high polyreactivity
QVQLVESGGGLVQAGGSLRLSCAASGSTFRNAMGWYRQAPGKERELVAAISYSGGRTYYADSVKGRFTISRDNAKNTVYLQMNSLKPEDTAVYYCASPGVSWSTRSYYYWGQGTQVTVSS	high polyreactivity
QVQLVESGGGLVQAGGSLRLSCAASGLIFNIYAMGWYRQAPGKERELVAAISKSGGSTYYADSVKGRFTISRDNAKNTVYLQMNSLKPEDTAVYYCAAPYLVRSQRYYYWGQGTQVTVSS	high polyreactivity
QVQLVESGGGLVQAGGSLRLSCAASGFTFSWYTMGWYRQAPGKERELVAAITSGGSTNYADSVKGRFTISRDNAKNTVYLQMNSLKPEDTAVYYCNAYWSYSISGYDYWGQGTQVTVSS	low polyreactivity
QVQLVESGGGLVQAGGSLRLSCAASGYTSRSNAMGWYRQAPGKERELVAAIRGGGNTKYADSVKGRFTISRDTAKNTVYLQMNSLKPEDTAVYYCAVVTGSFRTRYTYYYWGLGTQVTVSS	high polyreactivity
